# Reference: patent US10772972B2, “Anti-STEAP2 antibody drug conjugates, and compositions and uses thereof” (Regeneron Pharmaceuticals, Inc., priority 2016, dated 2020)
# Numbering of substitutions follows the chain as printed.
# T1: hSTEAP3 fused to GFP (Homo sapiens, UniProt Q658P3)
# T1 construct: expressed in transfected cells; host or cells: HEK293
# T1 sequence (Q658P3 1-488): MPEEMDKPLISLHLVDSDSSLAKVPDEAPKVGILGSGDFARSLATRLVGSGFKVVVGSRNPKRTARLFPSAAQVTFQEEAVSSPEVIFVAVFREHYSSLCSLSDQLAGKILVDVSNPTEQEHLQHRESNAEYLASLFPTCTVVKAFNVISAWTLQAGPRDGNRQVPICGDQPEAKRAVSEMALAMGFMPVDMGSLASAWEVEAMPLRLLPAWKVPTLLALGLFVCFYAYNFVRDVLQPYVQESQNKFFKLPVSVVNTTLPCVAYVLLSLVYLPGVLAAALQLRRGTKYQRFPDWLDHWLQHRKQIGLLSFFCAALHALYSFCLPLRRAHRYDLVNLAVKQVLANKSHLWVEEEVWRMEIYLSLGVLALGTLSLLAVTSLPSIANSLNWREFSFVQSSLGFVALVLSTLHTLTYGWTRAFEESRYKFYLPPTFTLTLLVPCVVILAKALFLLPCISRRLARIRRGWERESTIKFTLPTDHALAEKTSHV
# T2: hSTEAP2 fused to GFP (Homo sapiens, UniProt Q8NFT2)
# T2 construct: expressed in transfected cells; host or cells: HEK293
# T2 sequence (Q8NFT2 1-490): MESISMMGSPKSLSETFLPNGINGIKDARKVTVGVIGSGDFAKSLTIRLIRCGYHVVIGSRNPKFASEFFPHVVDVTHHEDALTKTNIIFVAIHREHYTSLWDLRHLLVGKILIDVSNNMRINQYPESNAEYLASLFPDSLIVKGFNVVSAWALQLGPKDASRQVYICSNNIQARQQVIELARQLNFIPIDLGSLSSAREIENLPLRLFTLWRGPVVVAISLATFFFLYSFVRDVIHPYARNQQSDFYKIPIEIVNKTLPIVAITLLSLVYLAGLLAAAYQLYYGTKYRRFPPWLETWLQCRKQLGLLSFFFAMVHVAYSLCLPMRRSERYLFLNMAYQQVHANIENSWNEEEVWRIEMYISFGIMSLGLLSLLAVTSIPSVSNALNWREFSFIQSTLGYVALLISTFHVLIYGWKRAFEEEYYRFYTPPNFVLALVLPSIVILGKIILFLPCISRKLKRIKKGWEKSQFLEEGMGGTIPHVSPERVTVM
# T3: hSTEAP4 fused to GFP (Homo sapiens, UniProt Q687X5)
# T3 construct: expressed in transfected cells; host or cells: HEK293
# T3 sequence (Q687X5 1-459): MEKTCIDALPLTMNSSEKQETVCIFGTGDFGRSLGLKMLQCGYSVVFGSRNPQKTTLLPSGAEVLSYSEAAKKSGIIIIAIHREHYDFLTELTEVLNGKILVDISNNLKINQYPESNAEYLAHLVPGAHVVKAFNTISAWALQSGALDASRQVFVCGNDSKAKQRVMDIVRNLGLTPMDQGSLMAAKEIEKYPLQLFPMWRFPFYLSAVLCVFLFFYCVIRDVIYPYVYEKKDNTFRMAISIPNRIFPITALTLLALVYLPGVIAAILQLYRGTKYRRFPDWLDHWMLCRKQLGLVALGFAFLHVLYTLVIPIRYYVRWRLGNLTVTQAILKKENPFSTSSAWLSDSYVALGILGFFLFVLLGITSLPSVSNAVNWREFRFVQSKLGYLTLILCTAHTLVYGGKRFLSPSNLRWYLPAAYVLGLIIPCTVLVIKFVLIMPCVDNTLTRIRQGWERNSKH
# B1: H1H7809N: human-Fc anti-STEAP2 antibody, HCVR SEQ ID NO: 330 (antibody, V domains shown)
# VH: QVQLVESGGGVVQPGRSLGLSCAASGFTFSSYGMHWVRQAPGKGLEWVAVIWYDGSNKYYVDSVKGRFTISRDNSKNTLYLQMNSLRAEDTAVYYCAREGLRFLENYYYYYGMDVWGQGTTVTVSS
# VL: EIVLTQSPGTLSLSPGERATLSCRASQSISSTYLAWYQQRPGQAPRLLIYGASSRATGIPDRFSGSGSGTDFTLTISRLEPEDFAVYYCQQYGTSPYTFGQGTKLEIK
# B2: H1H7810N: human-Fc anti-STEAP2 antibody; variable regions presumably as H2M7810N (antibody, V domains shown)
# VH: QVQLVESGGGVVQPGRSLRLSCAVSGFTSSTYGMNWVRQAPGKGLEWVAVISYDGSNKYYADSVKGRFTISRDNSKNTLYLQMNSLRPEDTAVYYCARGRYFDLWGRGTLVTVSS
# VL: DIQMTQSPSTLSASVGDRVTITCRASQIISSWLAWYQQKPGKAPKLLIYKASSLASGVPSRFSGSGSGTEFTLTISSLQPDDFATYYCQQYKSYSYTFGQGTKLEIK
# B3: H2M7810N: anti-STEAP2 antibody, HCVR/LCVR SEQ ID NOs 346/354 (antibody, V domains shown)
# VH: B2 VH
# VL: B2 VL
# B4: H2M7807N: anti-STEAP2 antibody, HCVR/LCVR SEQ ID NOs 314/322 (antibody, V domains shown)
# VH: B2 VH
# VL: B2 VL with K103N
# B5: H1M7814N: anti-STEAP2 antibody, mouse IgG1 Fc, HCVR/LCVR SEQ ID NOs 218/226 (antibody, V domains shown)
# VH: B2 VH with A23V, V24A, S29I, T31S, S56G, Y60S, A61V, P88A, T91S
# VL: B2 VL with I28S, K42R, K45N, Y49S, A55K, I75V, K92Y
# modifications: mouse IgG1 Fc
# B6: H1H7811N: human-Fc anti-STEAP2 antibody; variable regions presumably as H2M7811N (antibody, V domains shown)
# VH: B2 VH with Y53F, N84S
# VL: B2 VL with I2T, K103N
# B7: H2M7811N: anti-STEAP2 antibody, HCVR/LCVR SEQ ID NOs 362/370 (antibody, V domains shown)
# VH: B2 VH with Y53F, N84S
# VL: B2 VL with I2T, K103N
# B8: H1H11164N: human-Fc anti-STEAP2 antibody, HCVR/LCVR SEQ ID NOs 282/290 (antibody, V domains shown)
# VH: QVQLQQSGPGLVKPSQTLSLTCVISGDSVSTNSAAWNWIRQSPSRGLEWLGRTYYRSKWYNDYAVSVRSRITINPVTSKNQVALHLNSVTPEDTAVYYCARAGIVVVPGPETYYYYYHGLDVWGQGTTVTVSS
# VL: DIQMTQSPSSLSASVGDRVTITCRASQNIRSYLNWYQQKPGKAPKLLIHVASSLQSGVPSRFSGSGSGTDFTLTISSLQPEDFATYYCQQSYSTPPITFGHGTRLEIK
# modifications: human Fc
# Key:
# [1] = system: SKBR3 cells (STEAP2 negative); test: FACS binding to STEAP2-negative SKBR3 cells; conditions: human-Fc antibodies
# Experimental: (§1) The ability of anti-STEAP2 antibodies to selectively bind to human six-transmembrane epithelial antigen of prostate 2 (STEAP2) endogenously expressing cell lines was determined via FACS analysis.
# (§2) Briefly, 1×10^5 cells were incubated with 10 μg/ml of anti STEAP2 antibodies, or isotype control antibodies for 30 min on ice in antibody dilution buffer. Following one wash with antibody dilution buffer, cells were incubated with 10 μg/ml of PE conjugated anti-human or anti mouse Fc secondary antibodies for 30 min on ice. Following one additional wash, samples were incubated with Cytofix (1% formaldehyde) for 20 minutes. After one final wash, samples were filtered through a Pall 96 well filtration block, run on a Hypercyt® cytometer and analyzed in ForeCyt™ (IntelliCyt, Albuquerque, N. Mex.). Mean fluorescence intensities (MFI) were expressed as fold change above unstained levels (background). The average fold above background at antibody concentrations of 100-300 nM were determined. For cell binding EC50 determinations, mAb concentrations ranged from 300 nM to […] and EC50 values were determined from a four-parameter logistic equation over a 12-point response curve (GraphPad Prism).
# [2] = system: FADU cells (STEAP2 negative); test: FACS binding to STEAP2-negative FADU cells; conditions: human-Fc antibodies
# Experimental: as §1, §2
# [3] = system: Raji cells (STEAP2 negative); test: FACS binding to STEAP2-negative Raji cells; conditions: human-Fc antibodies
# Experimental: as §1, §2
# hSTEAP3 fused to GFP = target: T1, hSTEAP3 fused to GFP; test: Specificity: binding to HEK293 cells transfected with hSTEAP3-GFP; set-up: key: Wells with GFP positive cells that bound anti STEAP2 antibodies were scored as positive (+); those that did not bind anti STEAP2 antibodies were scored as negative (−); conditions: transient transfection, 48 h
# Experimental: (§3) Selected STEAP2 antibodies were then tested for binding to other human (h) STEAP family members (STEAP1, STEAP3, and STEAP4). To assess anti STEAP2 antibody specificity, plasmid constructs expressing hSTEAP1, hSTEAP2, hSTEAP3 or hSTEAP4 fused to Green Fluorescent Protein (GFP) were transiently introduced into HEK293 cells via lipofectamine 2000 based methodology. After 48 h, transiently transfected cells were stained with anti STEAP2 antibodies and imaged as described above for the internalization assay.
# hSTEAP2 fused to GFP = target: T2, hSTEAP2 fused to GFP; test: Specificity: binding to HEK293 cells transfected with hSTEAP2-GFP; set-up: key: Wells with GFP positive cells that bound anti STEAP2 antibodies were scored as positive (+); those that did not bind anti STEAP2 antibodies were scored as negative (−); conditions: transient transfection, 48 h
# Experimental: as §3
# hSTEAP1 fused to GFP = target: T4, hSTEAP1 fused to GFP (Homo sapiens, UniProt Q9UHE8); test: Specificity: binding to HEK293 cells transfected with hSTEAP1-GFP; set-up: key: Wells with GFP positive cells that bound anti STEAP2 antibodies were scored as positive (+); those that did not bind anti STEAP2 antibodies were scored as negative (−); conditions: transient transfection, 48 h
# T4 construct: expressed in transfected cells; host or cells: HEK293
# T4 sequence (Q9UHE8 whole entry, the tested form may be a part): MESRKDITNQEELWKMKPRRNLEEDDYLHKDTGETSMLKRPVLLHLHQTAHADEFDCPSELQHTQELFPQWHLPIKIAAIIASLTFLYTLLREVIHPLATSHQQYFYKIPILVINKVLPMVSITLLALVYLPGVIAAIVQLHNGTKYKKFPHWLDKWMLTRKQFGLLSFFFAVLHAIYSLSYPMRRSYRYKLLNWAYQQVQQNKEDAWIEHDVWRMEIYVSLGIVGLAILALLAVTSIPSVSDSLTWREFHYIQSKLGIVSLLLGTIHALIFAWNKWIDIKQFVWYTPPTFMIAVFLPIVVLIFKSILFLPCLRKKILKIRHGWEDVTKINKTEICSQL
# Experimental: as §3
# hSTEAP4 fused to GFP = target: T3, hSTEAP4 fused to GFP; test: Specificity: binding to HEK293 cells transfected with hSTEAP4-GFP; set-up: key: Wells with GFP positive cells that bound anti STEAP2 antibodies were scored as positive (+); those that did not bind anti STEAP2 antibodies were scored as negative (−); conditions: transient transfection, 48 h
# Experimental: as §3
# [4] = system: C4-2 cells (high-STEAP2 expressing); test: Internalization and total binding on C4-2 cells (imaging, qualitative score); format: cell-based, human; set-up: key: − (no internalization or binding); +(weak internalization or binding); ++(moderate internalization or binding); +++(robust internalization or binding); conditions: 10 μg/ml antibody
# Experimental: Briefly, 20,000 C4-2 cells were seeded in PDL coated 96 well plates. The next day, cells were incubated with anti-human STEAP2 antibodies (10 μg/ml) for 30 min on ice followed by two PBS washes. Cells were then incubated with alexa488-conjugated anti-hFc Fab secondary antibody for 30 minutes on ice, followed by two additional PBS washes. Antibodies were allowed to internalize for 1 h at 37° C. in internalization buffer (PBS+2% FBS) or were maintained at 4° C. Cells were fixed in 4% formaldehyde, nuclei were stained with DRAQ5 (Cell signaling), and images were acquired on the ImageXpress micro XL (Molecular Devices).
# A qualitative visual assessment of the total binding intensity and the intensity of antibodies that had internalized into vesicles was performed and scored according to the following criteria: − (no internalization or binding), +(weak internalization or binding), ++(moderate internalization or binding) and +++(robust internalization or binding).
Molecule,FADU Avg F.A.B (Fold Above Background) [2],Raji Avg F.A.B (Fold Above Background) [3],Binding to hSTEAP3-GFP transfected HEK293 cells (hSTEAP3 fused to GFP),Binding to hSTEAP2-GFP transfected HEK293 cells (hSTEAP2 fused to GFP),Binding to hSTEAP1-GFP transfected HEK293 cells (hSTEAP1 fused to GFP),Binding to hSTEAP4-GFP transfected HEK293 cells (hSTEAP4 fused to GFP),also measured
B1,21 fold,3 fold,,,,,SKBR3 Avg F.A.B (Fold Above Background) [1]: 37 fold
B2,,2 fold,,,,,
B3,,,−,+,−,−,
B4,,,−,+,−,−,
B5,,,−,+,−,−,
B6,3 fold,4 fold,,,,,
B7,,,−,+,−,−,
B8,3 fold,,,,,,"Internalization (37° C., 1 h) Qualitative Score [4]: +++; Total Binding (4° C.) Qualitative Score [4]: +++"
